Measurements as given in article PMC10198640.

Biological target: T1, recombinant soluble form of the extracellular domain of DC-SIGN, Q9NNX6
T1 chain: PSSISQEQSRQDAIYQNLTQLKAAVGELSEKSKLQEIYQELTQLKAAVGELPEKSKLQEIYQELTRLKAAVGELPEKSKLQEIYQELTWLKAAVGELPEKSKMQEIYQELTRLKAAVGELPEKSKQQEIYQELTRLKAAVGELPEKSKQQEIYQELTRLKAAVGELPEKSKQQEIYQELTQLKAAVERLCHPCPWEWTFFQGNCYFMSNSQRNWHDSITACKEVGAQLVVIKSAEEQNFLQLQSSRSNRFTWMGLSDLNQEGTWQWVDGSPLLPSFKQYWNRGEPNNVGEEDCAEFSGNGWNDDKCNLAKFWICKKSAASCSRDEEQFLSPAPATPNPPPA
Assay: native gel or EMSA; denaturing and nondenaturing polyacrylamide gel electrophoresis of the refolded, purified protein (fig. S2, A and B)
Conditions: remark: other sources report otherwise

stoichiometry N: 4
B1: recombinant soluble form of the extracellular domain of DC-SIGN, Q9NNX6 64-404 (domain or fragment)
chain: T1 chain
